From the nanobody polyreactivity screen of Harvey et al. (2022)

Assay: yeast display, Sf9 membrane polyspecificity reagent, FACS + sequencing; frameworks hold sequencing errors
Outline: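 Genes from sorted yeast were amplified by colony PCR, read by MiSeq 2 × 250 sequencing and filtered on CDR length. These cells carried a synthetic nanobody library in Saccharomyces cerevisiae BJ5465 and were sorted by FACS into low and high (top ~1%) gates on anti-HA and streptavidin fluorescence. Polyreactivity is labelled according to the gate of origin.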

QVQLVESGGGLVQAGGSLRLSCAASGFIFDQYAMGWYRQAPGKERELVAAITSGGDTNYADSVKGRFTISRDNAKNTVYFQMNSLKPEDTAVYYCNVDVPGVRFEYWGQGTQVTVSS
polyreactivity (PSR sort gate): low polyreactivity

QVQLVESGGGLVQAGGSLRLSCAASGFIFDRYAMGWYRQAPGKERELVAAISSGGSTYYADSVKGRFTISRDNAKNTVYLQMNSLKPEDTAVYYCAAESWLKFIYEYDYWGQGTQVTVSS
polyreactivity (PSR sort gate): low polyreactivity

QVQLVESGGGLVQAGGSLRLSCAASGFIFDRYAMGWYRQAPGKERELVAAITGSGGSTYYADSVKGRFTISRDNAKNTVYLQMNSLKPEDTAVYYCAAESYVYFALFYVSIPYYYWGQGTQVTVSS
polyreactivity (PSR sort gate): high polyreactivity

QVQLVESGGGLVQAGGSLRLSCAASGFIFDSNAMGWYRQAPGKERELVAAISRSGASTYYADSVKGRFTISRDNAKNTVYLQMNSLKPEDTSVYYCAASVRKIHDRFYYWGQGTQVTVSS
polyreactivity (PSR sort gate): high polyreactivity

QVQLVESGGGLVQAGGSLRLSCAASGFIFDSYAMGWYRPAPGKERELVATITKGGGRTYYADSVKGRFTISRDNAKNTVYLQMNSLKPEDTAVYYCNARGFSRRKGLDYWGQGTQVTVSS
polyreactivity (PSR sort gate): low polyreactivity

QVQLVESGGGLVQAGGSLRLSCAASGFIFDSYAMGWYRQAPGKERELVAAISWSGGRTYYADSVKGRFTISRDNAKYTVYLQMNSLKPEDTAVYYCNVRTKLSSSYDYWGQGTQVTVSS
polyreactivity (PSR sort gate): high polyreactivity

QVQLVESGGGLVQAGGSLRLSCAASGFIFDSYAMGWYRQAPGKERELVATITKGGGRTYYADSVKGRFTISRDNAKNTVYLQMNSLKPEDTAVYYCNARGFSRRKGLDYWGQGTQVTVSS
polyreactivity (PSR sort gate): low polyreactivity

QVQLVESGGGLVQAGGSLRLSCAASGFIFDTYAMGWYRQAPVKERELVAAISWTGTDTYYADSVKGRFTISRDNAKNTVYLQMNSLKPEDTAVYYCAARSRYKYSPSGDYWGQGTQVTVSS
polyreactivity (PSR sort gate): high polyreactivity

QVQLVESGGGLVQAGGSLRLSCAASGFIFDVNALGWSRQATGKERELVATISKRGGTTYYADSVKGRFTISRDNAKNTVYLQMYSLKPDDTAVYYCAARHQTLRSYRYDYWGQGTQVTVSS
polyreactivity (PSR sort gate): low polyreactivity

QVQLVESGGGLVQAGGSLRLSCAASGFIFDWYTMGWYRQAPGKERELVAAITIGGSTDYADSVKGRFTISRDNAKNTVYLQMNSLKPEDTAVYYCNALWYLSGTWYDYWGQGTQVTVSS
polyreactivity (PSR sort gate): low polyreactivity

QVQLVESGGGLVQAGGSLRLSCAASGFIFDYNTMGWYRQAPGKERELVADISGGGGRTYYADSVKGRFTISRDNAKNTVYLQMNSLKPEDTAVYYCAALGFYHHAWWISYDYWGQGTQVTVSS
polyreactivity (PSR sort gate): low polyreactivity

QVQLVESGGGLVQAGGSLRLSCAASGFIFDYYAMGWDRQAPGKESELVAAIRRSGGTTYYADSVKGRFTISRDNAKNTVYLLMNSLKPEDTAVYYCNVDSGEFDYVWVYTYDYWGQGTQVTVSS
polyreactivity (PSR sort gate): low polyreactivity

QVQLVESGGGLVQAGGSLRLSCAASGFIFDYYAMGWYRQAPGKERELVAAISGRGGSTYYADSVKGRFTISRDNAKNTVYLQMNSLKPEDTAVYYCAKGVERYTYGSYWYDYWGQGTQVTVSS
polyreactivity (PSR sort gate): high polyreactivity

QVQLVESGGGLVQAGGSLRLSCAASGFIFDYYAMGWYRQAPGKERELVAAITSRSGSTYYADSVKGRFTISRDNAKNTVYLQMNSLKPEDTAVYYCARRFKYGSTAWRFYYWGQGTQVSVSS
polyreactivity (PSR sort gate): high polyreactivity

QVQLVESGGGLVQAGGSLRLSCAASGFIFDYYAMGWYRQAPGKERELVASISGDDGRTYYADSVTGRFTISRDNAKNTVYLQMNSLKPEDTAVYDCNAEWGVLNYDYWGQGTQVTVSS
polyreactivity (PSR sort gate): low polyreactivity

QVQLVESGGGLVQAGGSLRLSCAASGFIFDYYAMGWYRQAPGKERELVGAITSGDSTNYADSVKGRFTISRDNAKNTVYLQMNSLKPEDTAVYYWGQGTQVTVSS
polyreactivity (PSR sort gate): low polyreactivity

QVQLVESGGGLVQAGGSLRLSCAASGFIFEGNAMGWYRPAPGKERELVAAISWSGGRTFYADSVKGRFTISRDNAKNTVYLQMNSLKPEDTAVYYCNALPGRRRWQVDYWGQGTQVTVSS
polyreactivity (PSR sort gate): high polyreactivity
